Changes are numbered by the printed parent chain. In names and notes the source's numbering stands.
T1: extracellular segment of human PRLR protein with avi-(his)6 tag (hPRLR-ECD-avi-his) (human, UniProt P16471 25-234)
T1 construct: The assays say only 'monomeric human PRLR extracellular domain / ECD'; also called human PRLR extracellular domain; monomeric PRLR ECD
T1 sequence: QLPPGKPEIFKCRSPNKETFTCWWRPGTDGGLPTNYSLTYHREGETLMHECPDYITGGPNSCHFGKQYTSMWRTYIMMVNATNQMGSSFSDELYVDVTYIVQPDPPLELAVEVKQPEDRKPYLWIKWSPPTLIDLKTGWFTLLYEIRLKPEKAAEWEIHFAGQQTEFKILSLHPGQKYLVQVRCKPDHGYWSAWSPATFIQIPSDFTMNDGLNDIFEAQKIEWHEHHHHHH

B1: P-PR-C08H (antibody, V domains shown)
VH: QVQLQQPGSELVRPGASVKLSCKASGFTFTTYWVHWVKQRPGQGLEWIGNISPGSGSTNYDEKFKSKASLTVDTFSNTAYMQLSSLTSEDSAVYYCIRHSGNYFNAMDYWGQGTTVTVSS
VL: DIVMTQAAPSVPVTPGESVSISCRSSKSLLHSNGNTYLYWFLQRPGQSPQLLIYRMSNLASGVPDRFSGSGSGTAFTLRISRVEAEDVGVYYCMQHLEYPLTFGAGTKLELK
notes: also called Antibody No. 6
B2: P-PR-C05H (antibody, V domains shown)
VH: B1 VH with Y32F, G56T, D61N, S66N, T115S
VL: B1 VL with V90I
notes: also called Antibody No. 3
B3: P-PR-B09W (antibody, V domains shown)
VH: B1 VH with Y32F, S55G, G56T, T115S
VL: B1 VL
notes: also called Antibody No. 10
B4: P-PR-D01H (antibody, V domains shown)
VH: B1 VH with S55G, S84G, V116L
VL: B1 VL
notes: also called Antibody No. 8
B5: P-PR-C12H (antibody, V domains shown)
VH: B1 VH with T30A, G56V, V116L
VL: B1 VL with P12L, L52V, L101F
notes: also called Antibody No. 7
B6: P-PR-D06H (antibody, V domains shown)
VH: B1 VH with Y32F, G56T, D61N, S66N, V116L
VL: B1 VL with S20T, N35K, R55W, L101F, A105V
notes: also called Antibody No. 16; P-PR-D06W
B7: P-PR-C02H (antibody, V domains shown)
VH: B1 VH with K19R, T115S
VL: B1 VL with A8T, T14A, S32T, N35Y
notes: also called Antibody No. 1
B8: P-PR-C06H (antibody, V domains shown)
VH: B1 VH with T115S
VL: B1 VL with P12F, R55Q, L59R, F67L, L101F, A105G, L111I
notes: also called Antibody No. 4
B9: H-PR-B03 (antibody, V domains shown)
VH: QVQLKESGPGLVAPSQSLSITCTVSGFSLTGFGVNWFRQPPGRGLEWLGMIWGDGSTDYNSALKSRLSISKDNSKSQVFLKMNSLQTDDTARYYCARVLYYYGGNSFAYWGQGTLVTVSA
VL: DVLMTQTPLSLPVSLGDQASISCRSSQSIVHSNGNTYLEWYLQKPGQSPKLLIYKVSSRFSGVPDRFSGSGSGTDFTLKISRVEAEDLGVYYCFQGSHVPYTFGGGTKLEIK
notes: also called Antibody No. 17
B10: HP-PR02E11 (antibody, V domains shown)
VH: QVQLQQSGPGLVAPSQSLSITCTVSGFSLTSYGVNWVRQPPGKGLEWLGIIGAGGSTNYNSALMSRLSISKDNSKSQVFLKMNSLQTDDTAMYYCARSLYYYGSSSFAYWGQGTLVTVSA
VL: B9 VL with V2I, L3V, S58N, Y101W, I111L
notes: also called Antibody No. 19
B11: P-PR-H04W (antibody, V domains shown)
VH: B1 VH with T115S
VL: B1 VL with L101F, A105S, L111I
notes: also called Antibody No. 12
B12: P-PR-G02W (antibody, V domains shown)
VH: B1 VH with V116L
VL: B1 VL
notes: also called Antibody No. 11
B13: P-PR-C04W (antibody, V domains shown)
VH: B1 VH
VL: B1 VL
notes: also called Antibody No. 15
B14: P-PR-H07W (antibody, V domains shown)
VH: B1 VH with T30A, G56V, V116L
VL: B1 VL with L101F, A105G, L111I
notes: also called Antibody No. 13
B15: P-PR-C04H (antibody, V domains shown)
VH: B1 VH with S55G
VL: B1 VL with L101F, A105S, L111I
notes: also called Antibody No. 2
B16: P-PR-H11W (antibody, V domains shown)
VH: B1 VH with Y32F, G56T, D61N, S66N, T115S
VL: B1 VL with L101F, A105G, L111I
notes: also called Antibody No. 14
B17: P-PR-D04H (antibody, V domains shown)
VH: QVQLQQPGSELVRPGASVKLSCKASGYTFTSYWMHWVKQRPGQGLEWIGNIYPGSGSTNYDEKFKSKATLTVDTSSSTAYMQLSSLTSEDSAVYYCTRGNYRYYFDYWGQGTTLTVSS
VL: not shown
notes: also called Antibody No. 9
B18: H-PR-B06 (antibody, V domains shown)
VH: DVKLVESGGGLVKPGGSLKLACAASGFTFSSYTMSWVRQTPEKRLEWVATISSGGSYTYYPDSVKGRFTISRDNAKNTLYLQLSSLKSEDTAMYYCTRDRYYSTTPDWYFDVWGAGTTVTVSS
VL: DIVLTQSPATLSVTPGDSVSLSCRATQIIFNNLHWYQQKSHESPRLLITYTSQSISGIPSRFSGSGSGTDFTLTINSVETEDFGMYFCQQSNTWPRTFGGGTKLEIK
notes: also called Antibody No. 18
B19: HP-PR01D12 (antibody, V domains shown)
VH: EVMLVESGGGLVQPGGSRKLSCAASGFTFSSFGMNWVRQAPEKGLEWVAYISSGSSIIYYADTVKGRFTISRDNPKNTLFLQMTSLRSEDTAMYYCTRFYGYIPFDYWGQGTTLTVSS
VL: DIVMTQSPAIMSASPGEKVTMTCSASSSLIYMHWYQQKSSTSPKLWIYDTSKLASGVPGRFSGSGSGNSYSLTTSSMEAEDVATYYCFQGSGYPLTFGGGTKLEIK
notes: also called Antibody No. 20
B20: HP-PR01C02 (antibody, V domains shown)
VH: DVHLVESGPGLVKPSQSLSLTCTVTGYSITSDYAWNWIRQFPGNKLEWMGYISYSGSTGYSPSLKSRVSITRDTSKNQFFLQLNSVTTEDTATYFCARNNWAFDFWGQGTTLTVSS
VL: DIVLTQSPAIMSASPGEKVTMTCSASSSVNYMHWYQQKSGTSPKRWIYDTSKLASGVPARFSGSGSGTSYSLTISSMEAEDAATYYCQQWSSNPLTFGAGTKLELK
notes: also called Antibody No. 22

Each binder was assayed against T1, extracellular segment of human PRLR … (assay: BLI (Octet), antibody on Protein A sensor, monomeric PRLR ECD in solution, 1:1 fit).

Row | Kd | koff | kon | Binder
1 | 0.00177 nM | 2.44e-07 s⁻¹ | 138000 M⁻¹ s⁻¹ | B1
2 | < 0.001 nM | 1.3e-07 s⁻¹ | 209000 M⁻¹ s⁻¹ | B2
3 | 1.53 nM | 0.000287 s⁻¹ | 187000 M⁻¹ s⁻¹ | B3
4 | 0.00105 nM | 2.44e-07 s⁻¹ | 232000 M⁻¹ s⁻¹ | B4
5 | 2.7 nM | 0.00033 s⁻¹ | 122000 M⁻¹ s⁻¹ | B5
6 | 3.38 nM | 0.000389 s⁻¹ | 115000 M⁻¹ s⁻¹ | B6
7 | 0.0016 nM | 2.44e-07 s⁻¹ | 153000 M⁻¹ s⁻¹ | B7
8 | 2.71 nM | 0.000663 s⁻¹ | 244000 M⁻¹ s⁻¹ | B8

What follows are binders tested against T2, recombinant mesothelin protein with the same tag (assay: ELISA, coated antigen 1 ug/mL, antibody 10 ug/mL).
T2 construct: Control antigen of the species-specific ELISA; also called Control protein

Row | absorbance at 450nm | Binder
9 | 0.067 | B9
10 | 0.111 | B10
11 | 0.065 | B1
12 | 0.064 | B11
13 | 0.07 | B12
14 | 0.095 | B13
15 | 0.069 | B14
16 | 0.116 | B2
17 | 0.102 | B3
18 | 0.068 | B4
19 | 0.091 | B5
20 | 0.09 | B15
21 | 0.137 | B6
22 | 0.098 | B7
23 | 0.054 | B16
24 | 0.084 | B8
25 | 0.065 | B17
26 | 0.054 | B18
27 | 0.09 | B19
28 | 0.072 | B20

What follows are binders tested against T1, extracellular segment of human PRLR … (assay: ELISA, coated antigen 1 ug/mL, antibody 10 ug/mL).

Row | absorbance at 450nm | Binder
29 | 2.2 | B1
30 | 2.45 | B14
31 | 2.14 | B2
32 | 2.32 | B3
33 | 2.02 | B4
34 | 2.24 | B5
35 | 2.15 | B15
36 | 2.48 | B6
37 | 2.14 | B7
38 | 2.32 | B16
39 | 2.1 | B8
